# Assays:
# [1] = molecular target: T1, IMP1 wild type (UniProt Q9NZI8 1-577); assay: EMSA; IMP1 0-540 nM; smallest region with affinity; FP: 300 nM IMP1, 10 nM probe (inhibitor assays), binding buffer stock 50 mM Tris-Cl pH 7.4, 12.5 mM EDTA pH 8, 25% glycerol, 0.01% Triton-X, 37 C 30 min; EMSA:; conditions: protein: recombinant; (radiolabeled)
# [2] = molecular target: T1, IMP1 wild type; assay: fluorescence polarization; grifolin up to 100 uM, no effect; FP: 300 nM IMP1, 10 nM probe (inhibitor assays), binding buffer stock 50 mM Tris-Cl pH 7.4, 12.5 mM EDTA pH 8, 25% glycerol, 0.01% Triton-X, 37 C 30 min; EMSA:; conditions: protein: recombinant; label: 3' 6-FL (fluorescein)
# [3] = molecular target: KH1to4 IMP1 (UniProt Q9NZI8 195-553); assay: fluorescence polarization; FP: 300 nM IMP1, 10 nM probe (inhibitor assays), binding buffer stock 50 mM Tris-Cl pH 7.4, 12.5 mM EDTA pH 8, 25% glycerol, 0.01% Triton-X, 37 C 30 min; EMSA:; conditions: protein: recombinant; label: 3' 6-FL (fluorescein)
# [4] = molecular target: KH3&4 IMP1 (KH34) (UniProt Q9NZI8 405-553); assay: fluorescence polarization; confluentin, no effect; FP: 300 nM IMP1, 10 nM probe (inhibitor assays), binding buffer stock 50 mM Tris-Cl pH 7.4, 12.5 mM EDTA pH 8, 25% glycerol, 0.01% Triton-X, 37 C 30 min; EMSA:; conditions: protein: recombinant; label: 3' 6-FL (fluorescein)
# [5] = molecular target: T1, IMP1 wild type; assay: fluorescence polarization; FP: 300 nM IMP1, 10 nM probe (inhibitor assays), binding buffer stock 50 mM Tris-Cl pH 7.4, 12.5 mM EDTA pH 8, 25% glycerol, 0.01% Triton-X, 37 C 30 min; EMSA:; conditions: protein: recombinant; label: 3' 6-FL (fluorescein)
# T1 sequence (Q9NZI8 whole entry): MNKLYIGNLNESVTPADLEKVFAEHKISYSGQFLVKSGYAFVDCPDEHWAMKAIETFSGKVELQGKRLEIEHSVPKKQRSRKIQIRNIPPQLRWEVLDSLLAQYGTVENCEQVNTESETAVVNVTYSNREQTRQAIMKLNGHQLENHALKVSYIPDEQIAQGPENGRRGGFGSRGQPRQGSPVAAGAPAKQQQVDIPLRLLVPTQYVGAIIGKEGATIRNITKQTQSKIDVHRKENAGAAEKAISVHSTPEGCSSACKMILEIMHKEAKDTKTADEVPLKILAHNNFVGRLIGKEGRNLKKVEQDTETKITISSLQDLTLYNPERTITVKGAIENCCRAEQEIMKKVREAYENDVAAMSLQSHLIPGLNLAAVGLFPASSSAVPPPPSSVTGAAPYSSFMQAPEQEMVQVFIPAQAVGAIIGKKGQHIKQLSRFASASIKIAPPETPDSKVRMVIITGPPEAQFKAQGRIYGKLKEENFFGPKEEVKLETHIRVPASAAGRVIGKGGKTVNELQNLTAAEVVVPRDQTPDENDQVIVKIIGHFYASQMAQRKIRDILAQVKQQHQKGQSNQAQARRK
# Chain of KH3&4 IMP1 (KH34) (Q9NZI8 405-553): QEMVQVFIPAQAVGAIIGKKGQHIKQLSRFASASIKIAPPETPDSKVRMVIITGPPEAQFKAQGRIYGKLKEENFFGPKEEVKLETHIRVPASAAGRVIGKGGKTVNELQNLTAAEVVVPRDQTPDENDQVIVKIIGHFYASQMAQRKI
# Chain of KH1to4 IMP1 (Q9NZI8 195-553): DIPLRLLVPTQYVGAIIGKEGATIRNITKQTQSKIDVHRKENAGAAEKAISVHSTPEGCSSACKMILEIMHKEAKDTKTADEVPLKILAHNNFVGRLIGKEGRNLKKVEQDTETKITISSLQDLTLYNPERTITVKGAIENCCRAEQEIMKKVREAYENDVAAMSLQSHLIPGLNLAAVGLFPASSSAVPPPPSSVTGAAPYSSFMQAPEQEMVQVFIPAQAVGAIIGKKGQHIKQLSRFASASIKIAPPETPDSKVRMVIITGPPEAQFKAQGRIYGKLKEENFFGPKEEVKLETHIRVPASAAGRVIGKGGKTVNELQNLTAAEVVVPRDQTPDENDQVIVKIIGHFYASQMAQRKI
binder,measurement,setting,value
GAAACCUGUCUCUUGGAUAUUCUCGACACAGCAGGUCAU (ssRNA) [39-nt KRAS RNA nts 147-185],binding result,[1],binds
AUGGAGAAACCUGUCUCUUGGAUAUUCUCGACACAGCAGGUCAU (ssRNA) [44-nt KRAS RNA (nts 142-185)],binding result,[2],binds
same,binding result,[3],binds
same,binding result,[4],binds
AAAUUAGGGCCCAAUUAAUAAUCAGCAAGAAUUUGAUCG (ssRNA) [39-nt CD44 RNA (nts 2862-2900)],binding result,[5],binds

# From publication PMC7199964, “Grifolin, neogrifolin and confluentin from the terricolous polypore Albatrellus flettii suppress KRAS expression in human colon cancer cells”
